In US9975933B2, “Tumor tissue-penetrating peptide specific to neuropilin and fusion protein having same peptide fused therein” (AJOU UNIVERSITY INDUSTRY-ACADEMIC COOPERATION FOUNDATION, priority 2013, dated 2018):

T1: NRP2-b1b2 (b1b2 domain of neuropilin-2) (Homo sapiens, UniProt O60462)
T1 construct: b1b2 domains (275-595) of neuropilin-2
T1 sequence (O60462 275-595): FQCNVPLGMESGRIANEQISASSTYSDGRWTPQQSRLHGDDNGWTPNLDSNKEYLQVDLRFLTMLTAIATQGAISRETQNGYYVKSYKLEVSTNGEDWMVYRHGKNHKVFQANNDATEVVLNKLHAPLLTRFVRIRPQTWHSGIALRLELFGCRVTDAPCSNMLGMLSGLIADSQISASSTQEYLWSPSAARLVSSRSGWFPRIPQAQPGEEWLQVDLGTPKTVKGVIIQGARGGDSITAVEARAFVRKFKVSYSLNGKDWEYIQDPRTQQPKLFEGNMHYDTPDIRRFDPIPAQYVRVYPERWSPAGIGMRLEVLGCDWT

B1: Sema3A: Secreted class 3 semaphorin 3A (26-760), neuropilin ligand, control group (protein)
chain: KNNVPRLKLSYKEMLESNNVITFNGLANSSSYHTFLLDEERSRLYVGAKDHIFSFDLVNIKDFQKIVWPVSYTRRDECKWAGKDILKECANFIKVLKAYNQTHLYACGTGAFHPICTYIEIGHHPEDNIFKLENSHFENGRGKSPYDPKLLTASLLIDGELYSGTAADFMGRDFAIFRTLGHHHPIRTEQHDSRWLNDPKFISAHLISESDNPEDDKVYFFFRENAIDGEHSGKATHARIGQICKNDFGGHRSLVNKWTTFLKARLICSVPGPNGIDTHFDELQDVFLMNFKDPKNPVVYGVFTTSSNIFKGSAVCMYSMSDVRRVFLGPYAHRDGPNYQWVPYQGRVPYPRPGTCPSKTFGGFDSTKDLPDDVITFARSHPAMYNPVFPMNNRPIVIKTDVNYQFTQIVVDRVDAEDGQYDVMFIGTDVGTVLKVVSIPKETWYDLEEVLLEEMTVFREPTAISAMELSTKQQQLYIGSTAGVAQLPLHRCDIYGKACAECCLARDPYCAWDGSACSRYFPTAKRRTRRQDIRNGDPLTHCSDLHHDNHHGHSPEERIIYGVENSSTFLECSPKSQRALVYWQFQRRNEERKEEIRVDDHIIRTDQGLLLRSLQQKDSGNYLCHAVEHGFIQTLLKVTLEVIDTEHLEELLHKDDDGDGSKTKEMSNSMTPSQKVWYRDFMQLINHPNLNTMDEFCEQVWKRDRKQRRQRPGHTPGNSNKWKHLQENKKGRNRR

Key:
[1] = target: b1b2 domains (273-586) of neuropilin-1 (Homo sapiens (Human)) (UniProt O14786); assay: SPR, b1b2 domain on chip
[2] = target: b1b2 domains (275-595) of neuropilin-2 (Homo sapiens (Human)) (UniProt O60462); assay: SPR, b1b2 domain on chip
[3] = tested on: VE-cadherin in HUVEC; assay: Western blot of VE-cadherin in HUVEC; type: cell-based, human; conditions: single peptides and Fc-TPP 1 μM, 10 minutes
Source text: During this process, a decrease in vascular endothelial (VE)-cadherin, phosphorylation, etc. of endothelial cells occur. That is, VE-cadherin or epithelial (E)-cadherin involves in adhesion between endothelial cells, while forming the base of adherent junction between endothelial cells and epithelial cells. The change in molecules relieve the density of adherent junction, which results in increasing permeability of blood vessels and improving intracellular permeability.
As an experimental method for indirectly confirming improvement of vascular permeability based thereon, a change in VE-cadherin was confirmed through a Western blot. Specifically, HUVECs were seeded into 6-well plates at a density of 3×10^5 per well, followed by incubation for 24 hours. Thereafter, single peptides and Fc-TPP were treated with 1 μM for 10 minutes to perform a Western blot. Gel subjected to SDS-PAGE was transported into PVDF membrane, a primary antibody (SantaCruz) and an HRP-conjugated secondary antibody (SantaCruz) which recognize VE-cadherin and (3-actin, respectively were used for detection. ImageQuant LAS4000 mini (GE Healthcare) was used for analysis.

[4] = tested on: HUVEC; assay: Transwell assay of vascular endothelial cell permeability; type: cell-based, human; conditions: 30 minutes
Protocol: Based on the above experimental results, as experiments for confirming the improvement of vascular endothelial cell permeability, single peptides and Fc-TPP were treated to conduct Transwell assay.
Specifically, HUVECs were seeded into Transwell plate (Corning) at a density of 5×10^4 per well in a upper chamber using Endothelial Growth Medium, PromoCell (EGM) medium, followed by incubation at 37° C. for 3 days under 5% CO2 condition. […] Thereafter, Dextran-FITC (Sigma) 50 μg was put into the upper chamber and the medium of the lower chamber was sampled to measure its fluorescence after 30 minutes, using the principle that a fluorescent substance is observed in the lower chamber when the permeability in HUVECs was improved.

[5] = tested on: A431 tumor; assay: IHC of Fc-TPP infiltration in A431 tumor tissue; type: in vivo, Balb/c nude mice; conditions: A431 xenograft, 5 mg/kg intravenously, 3 hours
Protocol: 3 hours after injection, tumors were extracted from mice to conduct immunohistochemistry experiment. The extracted tumors were cut into 20 μm thick using a frozen section method, and stained with a primary antibody, CD31 antibody (BD Pharmingen), and a TRITC (red fluorescence)-conjugated secondary antibody. Further, in order to observe Fc-TPP distributed in the tissues, FITC (green fluorescence)-conjugated antibodies recognizing Fc were used.

[6] = target: T2, NRP1-b1b2 (b1b2 domain of neuropilin-1) (Homo sapiens, UniProt O14786); assay: SPR (Biacore2000) binding to b1b2 domain of neuropilin-1; conditions: NRP1-b1b2, SPR; for Kd: read-out: Binding affinity KD
T2 construct: b1b2 domains (273-586) of neuropilin-1
T2 sequence (O14786 273-586): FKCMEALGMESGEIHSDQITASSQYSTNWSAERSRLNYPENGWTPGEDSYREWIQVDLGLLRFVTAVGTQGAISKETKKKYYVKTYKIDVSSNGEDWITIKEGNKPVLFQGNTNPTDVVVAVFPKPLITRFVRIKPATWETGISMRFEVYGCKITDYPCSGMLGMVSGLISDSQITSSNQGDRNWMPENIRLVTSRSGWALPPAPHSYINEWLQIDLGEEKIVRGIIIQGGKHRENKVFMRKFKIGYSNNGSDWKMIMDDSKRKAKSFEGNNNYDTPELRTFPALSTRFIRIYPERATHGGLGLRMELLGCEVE
Protocol: (§1) Specifically, each b1b2 domain of neuropilin-1 and -2 was diluted with 10 mM Na-acetate buffer (pH 4.0), and fixed onto CMS sensor chips (GE healthcare, USA) in about 1000 response units (RU). […] After bond and dissociation analysis, the regeneration of CMS chip was performed by streaming a buffer (20 Mm NaOH, 1 M NaCl, pH 10.0) at a stream velocity 30 μl/min for 1 minute.

[7] = target: T1, NRP2-b1b2 (b1b2 domain of neuropilin-2); assay: SPR (Biacore2000) binding to b1b2 domain of neuropilin-2; conditions: for Kd: read-out: Binding affinity KD
Protocol: as §1

[8] = tested on: b1b2 domains of neuropilin-1 and -2; assay: ELISA binding to b1b2 domains of neuropilin-1 and -2; conditions: 100 nM (peptides 100 nM, 1 μM)
Protocol: The binding capacity of purified Fc-TPP to b1b2 domains of neuropilin-1 and -2 (neuropilin (NRP)1/2-b1b1 domain) was confirmed in Enzyme Linked Immunosorbent Assay (ELISA).
The target molecules, b1b2 domains (273-586) of neuropilin-1 and b1b2 domains (275-595) of neuropilin-2, and the control group VEGFR2 (46-753) were bound in an amount of 1 μg each in 96-well EIA/RIA plates (COSTAR Corning In., USA) at room temperature for 1 hour, and then washed three times for 10 minutes with 0.1% PBST (0.1% Tween20, pH 7.4, 137 mM NaCl, 10 mM Phosphate, 2.7 mM KCl, SIGMA-ALDRICH co., USA). After binding for 1 hour with 5% skim milk (pH 7.4, 137 mM NaCl, 10 mM Phosphate, 2.7 mM KCl, SIGMA-ALDRICH co., USA), it was washed three times for 10 minutes with 0.1% PBST (0.1% Tween20, pH 7.4, 137 mM NaCl, 10 mM Phosphate, 2.7 mM KCl, SIGMA-ALDRICH co., USA). […] After binding to alkaline phosphatase (AP)-conjugated anti-biotin mAb (Sigma, USA) and reacting with pnitrophenyl […] (pNPP, SIGMA-ALDRICH co., USA), absorbance at 405 nm was quantified. From the ELISA result obtained from 30 minute-reaction of AP-pNPP, the binding capacity of expressed and purified Fc-TPP to b1b2 domains of neuropilin-1 and -2 was confirmed.

[9] = tested on: FaDu tumor; assay: In vivo Evans Blue assay of vascular permeability; set-up: species or system Balb/c nude mice; conditions: FaDu xenograft, 400 ng, 40 minutes
Protocol: Additionally, in order to confirm the improvement of vascular permeability in vivo, Evans Blue assay was conducted. […] 40 minutes after injection, the mice were perfused through the heart with PBS containing 1% BSA, and tumor tissues were extracted (FIG. 11d). Then, the extracted tissues were put into 1 ml of […] (Sigma) and reacted at 37° C. overnight under mild shaking condition. Thereafter, the supernatant was obtained from centrifugation to measure the absorbance (600 nm), and the amount that Evans Blue penetrated was quantified.

[10] = single peptides and Fc-TPP 1 μM

| Molecule | change in VE-cadherin (Western blot) [3] | permeability of HUVEC (Transwell, Dextran-FITC) [4, 10] | Association rate ka [6] | Dissociation rate kd [6] | Kd [6] | Association rate ka [7] | Dissociation rate kd [7] | Kd [7] | also measured |
| --- | --- | --- | --- | --- | --- | --- | --- | --- | --- |
| Sema3A (26-760) (from UniProt Q14563) (ligand) |  |  |  |  |  |  |  |  | Kd [1]: 27.9 nM; koff [1]: 0.000808 s⁻¹; kon [1]: 28900 M⁻¹ s⁻¹; Kd [2]: 231 nM; koff [2]: 0.00161 s⁻¹; kon [2]: 6960 M⁻¹ s⁻¹ |
| A22: Sema3A-derived 22 amino acid TPP, residues 739-760, SEQ ID NO: 1, HTPGNSNKWKHLQENKKGRNRR (A22) [Clone A22] | no change in VE-cadherin | improvement of vascular permeability was not induced |  |  |  |  |  |  | infiltration into tumor tissue (IHC) [5]: did not infiltrate into the tissues |
| VEGF165A (from UniProt P15692-4) (ligand) |  |  |  |  |  |  |  |  | Kd [1]: 3.51 nM; koff [1]: 0.00342 s⁻¹; kon [1]: 975000 M⁻¹ s⁻¹; Kd [2]: 32 nM; koff [2]: 0.00373 s⁻¹; kon [2]: 117000 M⁻¹ s⁻¹ |
| Fc-4F22: Human IgG1 Fc with TPP 4F22 (SEQ ID NO: 8) fused to its C-terminus (GAGAREAPGAPRSPEPQDQKKPRNRR) |  | permeability of HUVEC was not improved | 2.18 ± 0.12 × 10^2 M^−1s^−1 | 2.25 ± 0.18 × 10^−3 s^−1 | 10300 nM | 1.21 ± 0.15 × 10^2 M^−1s^−1 | 1.57 ± 0.40 × 10^−3 s^−1 | 13000 nM |  |
| A22p: A22 with Asn758Pro, SEQ ID NO: 2, HTPGNSNKWKHLQENKKGRPRR (A22p) [Clone A22p] | no change in VE-cadherin | improvement of vascular permeability was not induced |  |  |  |  |  |  | binding to b1b2 domains of NRP-1 and -2 (ELISA, absorbance 405 nm) [8]: stronger bond; infiltration into tumor tissue (IHC) [5]: did not infiltrate into the tissues |
| Sema3F (19-779) (from UniProt Q13275) (ligand) |  |  |  |  |  |  |  |  | Kd [1]: 245 nM; koff [1]: 0.000973 s⁻¹; kon [1]: 3980 M⁻¹ s⁻¹; Kd [2]: 345 nM; koff [2]: 0.0015 s⁻¹; kon [2]: 4340 M⁻¹ s⁻¹ |
| Fc-4A22: Human IgG1 Fc with TPP 4A22 (SEQ ID NO: 5) fused to its C-terminus (GAGAHTPGNSNKWKHLQENKKGRNRR) | VE-cadherin was not decreased | improvement of vascular permeability was not induced | 1.02 ± 0.14 × 10^3 M^−1s^−1 | 1.93 ± 0.05 × 10^−2 s^−1 | 18000 nM | 6.09 ± 0.63 × 10^3 M^−1s^−1 | 1.23 ± 0.16 × 10^−1 s^−1 | 20200 nM |  |
| F22p: F22 with Asn777Pro, SEQ ID NO: 4, REAPGAPRSPEPQDQKKPRPRR (F22p) [Clone F22p] |  | permeability of HUVEC was not improved |  |  |  |  |  |  | binding to b1b2 domains of NRP-1 and -2 (ELISA, absorbance 405 nm) [8]: stronger bond |
| Fc-15F22: Human IgG1 Fc with (GGGGS)3-F22 (SEQ ID NO: 9) fused to its C-terminus (GGGGSGGGGSGGGGSREAPGAPRSPEPQDQKKPRNRR) |  | permeability of HUVEC was not improved | 1.35 ± 0.24 × 10^3 M^−1s^−1 | 5.34 ± 0.24 × 10^−2 s^−1 | 39700 nM | 1.05 ± 0.03 × 10^3 M^−1s^−1 | 1.30 ± 0.21 × 10^−2 s^−1 | 12400 nM |  |
| F22: Sema3F-derived 22 amino acid TPP, residues 758-779, SEQ ID NO: 3, REAPGAPRSPEPQDQKKPRNRR (F22) [Clone F22] |  | permeability of HUVEC was not improved |  |  |  |  |  |  |  |
| B1 | a decrease in VE-cadherin was observed |  | 2.89 ± 0.07 × 10^4 M^−1s^−1 | 8.08 ± 0.06 × 10^−4 s^−1 | 27.9 nM | 6.96 ± 0.03 × 10^3 M^−1s^−1 | 1.61 ± 0.28 × 10^−3 s^−1 | 231 nM | permeability of HUVEC (Transwell, Dextran-FITC) ([4]; control ligands about 1.3 nM): permeability of HUVEC was improved; vascular permeability (Evans Blue) [9]: increased vascular permeability |
